Laboratory results from publication PMC4980433 (Molecular Cell, 2016).

B1: TNKS SAM domain (1,018-1,093), wild type [human] / itself (parent)
chain: ERKEGEVAGLDMNISQFLKSLGLEHLRDIFETEQITLDVLADMGHEELKEIGINAYGHRHKLIKGVERLLGGQQGT

Variants of: B1
Test: SEC-MALS
Conditions: with itself; 0.5 mM; n = 2

Row | screen value [kDa] | Variant
1 | 9.3 | chain 1 V39W Y56A
2 | 10.4 | chain 1 Y56A
3 | 10.6 | chain 1 V39W
